Patent US20050244864A1, “Development and use of fluorescent probes of unbound analytes” (priority 2004, published 2005)
Substitutions are numbered along the chain they refer to. Names may count otherwise.

B1: 47H1, L72A (protein, UniProt P02693 2-132, looked up, variant F47H L72A)
Fatty acid-binding protein, …: AFDGTWKVDRNENYEKFMEKMGINVVKRKLGAHDNLKLTITQEGNKHTVKESSNFRNIDVVFELGVDFAYSAADGTELTGTWTMEGNKLVGKFKRVDNGKELIAVREISGNELIQTYTYEGVEAKRIFKKE
modifications: acrylodan label
B2: 47C3, L72A (protein, UniProt P02693 2-132, looked up, variant F47C L72A)
Fatty acid-binding protein, …: B1 Fatty acid-binding protein, … with H47C
modifications: acrylodan label
B3: 14Y, 72A wt (protein, UniProt P02693 2-132, looked up, variant L72A)
Fatty acid-binding protein, …: B1 Fatty acid-binding protein, … with H47F
modifications: acrylodan label
B4: 11I1, L72A (protein, UniProt P02693 2-132, looked up, variant N11I L72A)
Fatty acid-binding protein, …: B1 Fatty acid-binding protein, … with N11I, H47F
modifications: acrylodan label
B5: 11Q1, L72A (protein, UniProt P02693 2-132, looked up, variant N11Q L72A)
Fatty acid-binding protein, …: B1 Fatty acid-binding protein, … with N11Q, H47F
modifications: acrylodan label
B6: 40V1, L72A (protein, UniProt P02693 2-132, looked up, variant I40V L72A)
Fatty acid-binding protein, …: B1 Fatty acid-binding protein, … with I40V, H47F
modifications: acrylodan label
B7: 47T1, L72A (protein, UniProt P02693 2-132, looked up, variant F47T L72A)
Fatty acid-binding protein, …: B1 Fatty acid-binding protein, … with H47T
modifications: acrylodan label
B8: 47M2, L72A (protein, UniProt P02693 2-132, looked up, variant F47M L72A)
Fatty acid-binding protein, …: B1 Fatty acid-binding protein, … with H47M
modifications: acrylodan label
B9: 11F1, L72A (protein, UniProt P02693 2-132, looked up, variant N11F L72A)
Fatty acid-binding protein, …: B1 Fatty acid-binding protein, … with N11F, H47F
modifications: acrylodan label
B10: 11W1, L72A (protein, UniProt P02693 2-132, looked up, variant N11W L72A)
Fatty acid-binding protein, …: B1 Fatty acid-binding protein, … with N11W, H47F
modifications: acrylodan label
B11: 47G1, L72A (protein, UniProt P02693 2-132, looked up, variant F47G L72A)
Fatty acid-binding protein, …: B1 Fatty acid-binding protein, … with H47G
modifications: acrylodan label
B12: 11D1, L72A (protein, UniProt P02693 2-132, looked up, variant N11D L72A)
Fatty acid-binding protein, …: B1 Fatty acid-binding protein, … with N11D, H47F
modifications: acrylodan label
B13: 11S5, L72A (protein, UniProt P02693 2-132, looked up, variant N11S L72A)
Fatty acid-binding protein, …: B1 Fatty acid-binding protein, … with N11S, H47F
modifications: acrylodan label
B14: 40F2, L72A (protein, UniProt P02693 2-132, looked up, variant I40F L72A)
Fatty acid-binding protein, …: B1 Fatty acid-binding protein, … with I40F, H47F
modifications: acrylodan label
B15: 47S1, L72A (protein, UniProt P02693 2-132, looked up, variant F47S L72A)
Fatty acid-binding protein, …: B1 Fatty acid-binding protein, … with H47S
modifications: acrylodan label
B16: R106W, L72A: acrylodan-labeled rI-FABP mutein R106W, L72A (protein)
chain: B1 Fatty acid-binding protein, … with H47F, R106W
B17: D74F, L72A: acrylodan-labeled rI-FABP mutein D74F, L72A (protein)
chain: B1 Fatty acid-binding protein, … with H47F, D74F
B18: L78F, L72A: acrylodan-labeled rI-FABP mutein L78F, L72A (protein)
chain: B1 Fatty acid-binding protein, … with H47F, L78F
B19: Y117A, L72A: acrylodan-labeled rI-FABP mutein Y117A, L72A (protein)
chain: B1 Fatty acid-binding protein, … with H47F, Y117A
B20: W82F, L72A: acrylodan-labeled rI-FABP mutein W82F, L72A (protein)
chain: B1 Fatty acid-binding protein, … with H47F, W82F
B21: VQQ: probe L72V R106Q R126Q of rI-FABP (protein, UniProt P02693 2-132, looked up, variant L72V R106Q R126Q)
Fatty acid-binding protein, …: B1 Fatty acid-binding protein, … with H47F, A72V, R106Q, R126Q
modifications: fluorescent label
notes: probe L72V R106Q R126Q of rI-FABP

Test: Probe fluorescence ratio response to arachidonate:BSA complex, relative to ADIFAB2 (ΔR/ΔRAD2)
Assay type: binding
Details: arachidonate (AA); response relative to ADIFAB2
Protocol: (§1) The intensity ratio (“R” value) for a given probe is determined. The ratio is calculated using the following formula: R=Fλ1/Fλ2 wherein, Fλ1, is the measured fluorescence intensities (intensity of sample with probe present minus intensity of sample without probe present) at wavelength 1 and Fλ2 is the measured fluorescence intensities (intensity of sample with probe present minus intensity of sample without probe present) at wavelength 2. Then, for a given probe, ΔR, the difference in R value between the measurement in the presence of the analyte and in the absence of the analyte, is calculated as follows: ΔR=R+analyte−R0 The ΔR value for a given probe is then compared to a reference probe, for example, ADIFAB or ADIFAB2, by ΔR/ΔRreference. This value is an indication of how dissimilar the new probe (derived by mutation of the template) is to the reference. By this method, probes with new and useful characteristics may be identified. Measurements of fluorescence intensities are obtained using standard techniques.
(§2) Mutant probes were screened in 96-well plates by fluorescence response to five fatty acids: arachidonate, linolenate, linoleate, oleate, and palmitate. Each fatty acid was prepared as a complex with BSA by slow addition of 50 mM stocks of fatty acid sodium salts at pH 11 to 600 μM BSA in HEPES buffer. During the formation of complexes, 15 μL aliquots were periodically measured with the reference probe, ADIFAB2, to determine the ΔR value upon excitation at 375 nm and fluorescence emission at 550 and 457 nm using a Fluorolog-3 spectrofluorometer (Jobin Yvon) (Richieri et al, Molecular and Cellular Biochemistry (1999), 192:87-94 & Richieri et al, J. Biol. Chem. (1996), 271:31068-31074). Complexes were prepared such that the final ΔR was approximately 0.4 which correspond to [FFAu] ranging from 100 to 1000 nM depending on FFA type. These complexes buffer or clamp the FFAu levels at fixed values and therefore ensure the accurate comparison of different probes with the same FFAu concentrations. In contrast, addition of FFAu alone (i.e. uncomplexed FFA) introduces considerable uncertainty in comparing different probes because the FFAu level will be affected by binding to the dispensing device, the walls of the multi-well plates and to the probe itself. Thus, the terms “buffer” and “clamp” as used in this particular context herein are taken to mean the ability of a carrier macromolecule to complex with an unbound metabolite so that the unbound metabolite is presented accurately for measurement purposes and is prevented from non-specific binding such as binding to laboratory apparatus.
(§3) Plates were prepared and read in two stages. First, complexes and fatty acid free BSA were diluted to 6 μM BSA in HEPES and added to the 96-well plate at 300 μL per well. A MultiProbe II HT (Perkin Elmer) (an automated liquid handling system) was used to facilitate plate preparation for high throughput screening, but any automated or manual pipetting system will suffice. The background fluorescence was then measured at the same wavelengths as used for ADIFAB2 using a Fluorolog-3 spectrofluorometer with an external Micromax 384 fluorescence plate reader (Jobin Yvon). In the second stage, 30 μL aliquots of the mutant probes were added to multiple wells of the plate, one for each fatty acid and one with fatty acid free BSA only, and the fluorescence intensity at each wavelength was again measured on the plate reader. After subtraction of the background fluorescence, the fluorescence ratio of each well was calculated.
(§4) The fluorescence response was quantitatively compared to ADIFAB2 to search for changes in magnitude and fatty acid profile; for example the response to one fatty acid relative to another. For each probe the ratio differences (AR) between wells with each fatty acid compared to a corresponding well with fatty acid free BSA were recorded. […]

| Molecule | DR/DR AA |
| --- | --- |
| B1 | 0.63 |
| B2 | 0.32 |
| B3 | 1.29 |
| B4 | 0.58 |
| B5 | 1.33 |
| B6 | 1.20 |
| B7 | 0.68 |
| B8 | 1.00 |
| B9 | 0.42 |
| B10 | 0.43 |
| B11 | 0.51 |
| B12 | 0.82 |
| B13 | 0.33 |
| B14 | 0.89 |
| B15 | 0.61 |

Same assay, conditions: fluorescence response (R-Ro) relative to ADIFAB2; arachidonate

| Molecule | ΔR/ΔRAD2 AA |
| --- | --- |
| B16 | 1.11 |
| B17 | 0.44 |
| B18 | 2.04 |
| B19 | 1.27 |
| B20 | 0.68 |

Test: Probe fluorescence ratio response to linolenate:BSA complex, relative to ADIFAB2 (ΔR/ΔRAD2)
Assay type: binding
Details: fluorescence response (R-Ro) relative to ADIFAB2; linolenate
Protocol: as §1, §2, §3, §4

| Molecule | ΔR/ΔRAD2 LNA |
| --- | --- |
| B16 | 1.03 |
| B17 | 1.04 |
| B18 | 2.05 |
| B19 | 0.62 |
| B20 | 0.76 |

Same assay, conditions: linolenate (LNA); response relative to ADIFAB2

| Molecule | DR/DR LNA |
| --- | --- |
| B1 | 0.70 |
| B2 | 0.35 |
| B3 | 1.29 |
| B4 | 0.51 |
| B5 | 1.43 |
| B6 | 1.28 |
| B7 | 0.74 |
| B8 | 0.97 |
| B9 | 0.29 |
| B10 | 0.39 |
| B11 | 0.63 |
| B12 | 0.86 |
| B13 | 0.37 |
| B14 | 0.99 |
| B15 | 0.69 |

Test: Probe fluorescence ratio response to linoleate:BSA complex, relative to ADIFAB2 (ΔR/ΔRAD2)
Assay type: binding
Details: fluorescence response (R-Ro) relative to ADIFAB2; linoleate
Protocol: as §1, §2, §3, §4

| Molecule | ΔR/ΔRAD2 LA |
| --- | --- |
| B16 | 1.04 |
| B17 | 0.67 |
| B18 | 2 |
| B19 | 1.01 |
| B20 | 1.08 |

Same assay, conditions: linoleate (LA); response relative to ADIFAB2

| Molecule | DR/DR LA |
| --- | --- |
| B1 | 0.74 |
| B2 | 0.37 |
| B3 | 1.23 |
| B4 | 0.55 |
| B5 | 1.37 |
| B6 | 1.24 |
| B7 | 0.77 |
| B8 | 0.99 |
| B9 | 0.28 |
| B10 | 0.40 |
| B11 | 0.66 |
| B12 | 0.91 |
| B13 | 0.36 |
| B14 | 0.90 |
| B15 | 0.66 |

Test: Probe fluorescence ratio response to oleate:BSA complex, relative to ADIFAB2 (ΔR/ΔRAD2)
Assay type: binding
Details: fluorescence response (R-Ro) relative to ADIFAB2; oleate
Protocol: as §1, §2, §3, §4

| Molecule | ΔR/ΔRAD2 OA |
| --- | --- |
| B16 | 0.99 |
| B17 | 0.51 |
| B18 | 1.83 |
| B19 | 0.93 |
| B20 | 0.78 |

Same assay, conditions: oleate (OA); response relative to ADIFAB2

| Molecule | DR/DR OA |
| --- | --- |
| B1 | 0.67 |
| B2 | 0.35 |
| B3 | 2.22 |
| B4 | 0.39 |
| B5 | 1.32 |
| B6 | 1.21 |
| B7 | 0.74 |
| B8 | 0.95 |
| B9 | 0.20 |
| B10 | 0.22 |
| B11 | 0.59 |
| B12 | 0.92 |
| B13 | 0.29 |
| B14 | 0.90 |
| B15 | 0.64 |

Test: Probe fluorescence ratio response to palmitate:BSA complex, relative to ADIFAB2 (ΔR/ΔRAD2)
Assay type: binding
Details: not given
Protocol: as §1, §2, §3, §4

| Molecule | response to palmitic acid |
| --- | --- |
| B21 | does not respond to palmitic acid |

Same assay, conditions: fluorescence response (R-Ro) relative to ADIFAB2; palmitate

| Molecule | ΔR/ΔRAD2 PA |
| --- | --- |
| B16 | 0.41 |
| B17 | 0.93 |
| B18 | 0.91 |
| B19 | 0.32 |
| B20 | 0.41 |

Same assay, conditions: palmitate (PA); response relative to ADIFAB2

| Molecule | DR/DR PA |
| --- | --- |
| B1 | 0.43 |
| B2 | 0.23 |
| B3 | 1.07 |
| B4 | 1.19 |
| B5 | 1.19 |
| B6 | 0.91 |
| B7 | 0.46 |
| B8 | 0.83 |
| B9 | 0.18 |
| B10 | 0.15 |
| B11 | 0.32 |
| B12 | 0.83 |
| B13 | 0.35 |
| B14 | 0.80 |
| B15 | 0.34 |
